Laboratory results as given in publication PMC10136361, “Inhibition Analysis and High-Resolution Crystal Structure of Mus musculus Glutathione Transferase P1-1” (Biomolecules, 2023).

Substrate: N[C@@H](CCC(=O)N[C@@H](CS)C(=O)NCC(=O)O)C(=O)O
Assay: purified protein
Conditions: G-site

B1: MmGSTP1-1 (Mus musculus) (protein)
chain: PPYTIVYFPVRGRCEAMRMLLADQGQSWKEEVVTIDTWMQGLLKPTCLYGQLPKFEDGDLTLYQSNAILRHLGRSLGLYGKNQREAAQMDMVNDGVEDLRGKYVTLIYTNYENGKNDYVKALPGHLKPFETLLSQNQGGKAFIVGDQISFADYNLLDLLLIHQVLAPGCLDNFPLLSAYVARLSARPKIKAFLSSPEHVNRPINGNGKQ
Km: 220 ± 10 µM
